The text below walks through data of patent US20180291335A1, “MODIFIED POLYNUCLEOTIDES FOR ALTERING CELL PHENOTYPE” (ModernaTX, Inc., priority 2012, published 2018).

Series [1] has as its system HeLa cells. The experiment in a line: Luciferase in HeLa cells using a combination of modifications. It is filed as cell-based, human. To be noted: 83 ng luciferase modified RNA, 18 to 22 hours. Here is the method: To evaluate using of 2′fluoro-modified mRNA in combination with other modification a series of mRNA were transcribed using either wild-type T7 polymerase (non-fluoro-containing compounds) or using mutant T7 polymerases (fluyoro-containing compounds) as described in Example 86. All modified mRNA were tested by in vitro transfection in HeLa cells.
The day before transfection, 20,000 HeLa cells (ATCC no. CCL-2; Manassas, Va.) were harvested by treatment with Trypsin-EDTA solution (LifeTechnologies, Grand Island, N.Y.) and seeded in a total volume of 100 ul EMEM medium (supplemented with 10% FCS and 1× Glutamax) per well in a 96-well cell culture plate (Corning, Manassas, Va.). The cells were grown at […] in 5% CO2 atmosphere overnight. […] Lipofectamine 2000 (LifeTechnologies, Grand Island, N.Y.) was used as transfection reagent and 0.2 ul were diluted in 10 ul final volume of OPTI-MEM. After 5 minutes of incubation at room temperature, both solutions were combined and incubated an additional 15 minute at room temperature. Then the 20 ul combined solution was added to the 100 ul cell culture medium containing the HeLa cells and incubated at room temperature.
After 18 to 22 hours of incubation cells expressing luciferase were lysed with 100 ul of Passive Lysis Buffer (Promega, Madison, Wis.) according to manufacturer instructions. Aliquots of the lysates were transferred to white opaque polystyrene 96-well plates (Corning, Manassas, Va.) and combined with 100 ul complete luciferase assay solution (Promega, Madison, Wis.). The lysate volumes were adjusted or diluted until no more than 2 mio relative light units (RLU) per well were detected for the strongest signal producing samples and the RLUs for each chemistry tested are shown in Table 26. The plate reader was a BioTek Synergy H1 (BioTek, Winooski, Vt.). The background signal of the plates without reagent was about 200 relative light units per well.

The test system of series [2] is peripheral blood mononuclear cells (PBMC). The experiment in a line: In vitro screening in PBMC: G-CSF protein expression by ELISA. It is filed as cell-based, human. The gist of the method: (§1)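 After harvest, the medium above the cells is stored frozen; later, ELISA quantifies G-CSF expression plus IFN-α and TNF-α levels.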
(An ELISA detects its analyte on a solid surface through an enzyme-linked reagent.)

Another series deals with interferon-alpha (IFN-α). The experiment in a line: In vitro screening in PBMC: interferon-alpha induction by ELISA. It is filed as cell-based, human. The gist of the method:
as §1

Series [3] has as its system tumor necrosis factor alpha (TNF-α). The experiment in a line: In vitro screening in PBMC: tumor necrosis factor alpha induction by ELISA. The format is cell-based, human. The source says:
The supernatant was harvested and stored frozen until analyzed by ELISA to determine the G-CSF protein expression, and the induction of the cytokines interferon-alpha (IFN-α) and tumor necrosis factor alpha (TNF-α).

Series [4] concerns HeLa cells. The experiment in a line: G-CSF modified mRNA transfected in HeLa cells, G-CSF ELISA. The format is cell-based, human. The note with it: HeLa cells, ELISA. How it is done:
(§2) To assess the activity of all our different chemical modifications in the context of a second open reading frame, we replicated experiments previously conducted using luciferase mRNA, with human G-CSF mRNA. […] The mutant T7 polymerase was obtained commercially (Durascribe® T7 Transcription kit (Cat. No. DS010925) (Epicentre®, Madison, Wis.).
(§3) The modified RNA in Tables 27 and 28 were transfected in vitro in HeLa cells or added to rabbit reticulysates (250 ng of modified mRNA) as indicated. […] In Table 27, “NT” means not tested.

In the next series the test system is rabbit reticulysates. The experiment in a line: G-CSF modified mRNA in rabbit reticulysates, G-CSF ELISA. It is filed as biochemical. The note with it: 250 ng of modified mRNA, listed as 5-methylcytosine/pseudouridine. Here is the method: as §2, §3
Where [5] appears, read: PBMC Donor 1, 500 ng G-CSF mRNA.
Where [6] appears, read: PBMC Donor 1, 500 ng G-CSF mRNA, listed as 5-methylcytosine and pseudouridine (2nd set).
The mark [7] stands for this setting: PBMC Donor 1, 500 ng G-CSF mRNA, listed as 5-methylcytosine and pseudouridine (3rd set).
Setting [8] is: PBMC Donor 1, 500 ng G-CSF mRNA, listed as 5-methylcytosine and pseudouridine (4th set).
Where [9] appears, read: PBMC Donor 2, 500 ng G-CSF mRNA.
The mark [10] stands for this setting: PBMC Donor 2, 500 ng G-CSF mRNA, listed as 5-methylcytosine and pseudouridine (2nd set).
Setting [11] is: PBMC Donor 2, 500 ng G-CSF mRNA, listed as 5-methylcytosine and pseudouridine (3rd set).
[12] abbreviates: PBMC Donor 2, 500 ng G-CSF mRNA, listed as 5-methylcytosine and pseudouridine (4th set).
[13] abbreviates: PBMC Donor 3, 500 ng G-CSF mRNA.
[14] abbreviates: PBMC Donor 3, 500 ng G-CSF mRNA, listed as 5-methylcytosine and pseudouridine (2nd set).
Where [15] appears, read: PBMC Donor 3, 500 ng G-CSF mRNA, listed as 5-methylcytosine and pseudouridine (3rd set).
The mark [16] stands for this setting: PBMC Donor 3, 500 ng G-CSF mRNA, listed as 5-methylcytosine and pseudouridine (4th set).

Consider “2′Fluoroguanine/5-methylcytidine/N1 methylpsuedouridine: Luciferase mRNA (SEQ ID NO: 409) modified with the named combination”, for which, in the series on HeLa cells [1], the RLU came to 235 RLU.
Consider “2′Fluoroguanine/N1-methylpsuedouridine: Luciferase mRNA (SEQ ID NO: 409) modified with the named combination”, for which the RLU in the series on HeLa cells [1] amounted to 247 RLU.
Regarding “2′Fluoroguanine/pseudouridine: Luciferase mRNA (SEQ ID NO: 409) modified with the named combination”, the RLU in the series on HeLa cells [1] stood at 218 RLU.

B1: 5-methylcytosine and pseudouridine (1^st set): G-CSF mRNA (SEQ ID NO: 408) fully modified with 5-methylcytosine and pseudouridine; repeated sets/tests (nucleic acid)
chain: GGGAAAUAAGAGAGAAAAGAAGAGUAAGAAGAAAUAUAAGAGCCACCAUGGCCGGUCCCGCGACCCAAAGCCCCAUGAAACUUAUGGCCCUGCAGUUGCUGCUUUGGCACUCGGCCCUCUGGACAGUCCAAGAAGCGACUCCUCUCGGACCUGCCUCAUCGUUGCCGCAGUCAUUCCUUUUGAAGUGUCUGGAGCAGGUGCGAAAGAUUCAGGGCGAUGGAGCCGCACUCCAAGAGAAGCUCUGCGCGACAUACAAACUUUGCCAUCCCGAGGAGCUCGUACUGCUCGGGCACAGCUUGGGGAUUCCCUGGGCUCCUCUCUCGUCCUGUCCGUCGCAGGCUUUGCAGUUGGCAGGGUGCCUUUCCCAGCUCCACUCCGGUUUGUUCUUGUAUCAGGGACUGCUGCAAGCCCUUGAGGGAAUCUCGCCAGAAUUGGGCCCGACGCUGGACACGUUGCAGCUCGACGUGGCGGAUUUCGCAACAACCAUCUGGCAGCAGAUGGAGGAACUGGGGAUGGCACCCGCGCUGCAGCCCACGCAGGGGGCAAUGCCGGCCUUUGCGUCCGCGUUUCAGCGCAGGGCGGGUGGAGUCCUCGUAGCGAGCCACCUUCAAUCAUUUUUGGAAGUCUCGUACCGGGUGCUGAGACAUCUUGCGCAGCCGUGAAGCGCUGCCUUCUGCGGGGCUUGCCUUCUGGCCAUGCCCUUCUUCUCUCCCUUGCACCUGUACCUCUUGGUCUUUGAAUAAAGCCUGAGUAGGAAG
modifications: 5-methylcytosine/pseudouridine modified; Description of Artificial Sequence: Synthetic Transcript Sequence
notes: repeated sets/tests
As for B1, the “G-CSF Protein Expression” value in series [2] (setting [5]) was 2,632 pg/ml; in series [2] (setting [6]), 1,682 pg/ml; in series [2] (setting [7]), 1,595 pg/ml; in series [2] (setting [8]), 264 pg/mL; in series [2] (setting [9]), 1,955 pg/ml; in series [2] (setting [10]), 1,382 pg/ml. Besides, the “G-CSF Protein Expression” value in series [2] (setting [11]) is 1,432 pg/ml; in series [2] (setting [12]), 350 pg/mL; in series [2] (setting [13]), 1,373 pg/ml; in series [2] (setting [14]), 1,036 pg/ml; in series [2] (setting [15]), 955 pg/mL; in series [2] (setting [16]) it was 182 pg/mL. Further, the “IFN-α Expression” value was found to be 88 pg/mL in the series on interferon-alpha (IFN-α) (setting [5]); 133 pg/mL in the series on interferon-alpha (IFN-α) (setting [6]); 88 pg/mL in the series on interferon-alpha (IFN-α) (setting [7]); 131 pg/mL with interferon-alpha (IFN-α) (setting [8]); 94 pg/mL in the series with interferon-alpha (IFN-α) (setting [9]); 92 pg/mL in the series with interferon-alpha (IFN-α) (setting [10]). The “IFN-α Expression” value in the series on interferon-alpha (IFN-α) (setting [11]) was found to be 75 pg/mL; in the series with interferon-alpha (IFN-α) (setting [12]), 28 pg/mL; in the series with interferon-alpha (IFN-α) (setting [13]), 148 pg/mL; in the series with interferon-alpha (IFN-α) (setting [14]), 167 pg/mL; in the series on interferon-alpha (IFN-α) (setting [15]), 150 pg/mL; in the series with interferon-alpha (IFN-α) (setting [16]) it was 18 pg/mL. The “TNF-α Expression” value in series [3] (setting [5]) amounted to 64 pg/mL; in series [3] (setting [6]) it was 99 pg/mL; in series [3] (setting [7]), 84 pg/mL; in series [3] (setting [8]) it was 53 pg/mL; in series [3] (setting [9]), 89 pg/mL; in series [3] (setting [10]), 111 pg/mL. The “TNF-α Expression” value in series [3] (setting [11]) is 89 pg/mL; in series [3] (setting [12]) it was 24 pg/mL; in series [3] (setting [13]), 121 pg/mL; in series [3] (setting [14]) it was 150 pg/mL; in series [3] (setting [15]) it was 130 pg/mL; in series [3] (setting [16]), 29 pg/mL. Moreover, the “G-CSF protein (pg/ml) HeLa cells” value with HeLa cells [4] (G-CSF mRNA, listed as 5-methylcytosine/pseudouridine, Test A) is listed as 609,545 pg/ml; in the series on HeLa cells [4] (G-CSF mRNA, listed as 5-methylcytosine/pseudouridine, Test B), 358,182 pg/ml; with HeLa cells [4] (G-CSF mRNA, listed as 5-methylcytosine/pseudouridine, Test C), 882,500 pg/ml; with HeLa cells [4] (G-CSF mRNA, listed as 5-methylcytosine/pseudouridine, Test D), 87,045 pg/ml; with HeLa cells [4] (combination chemistries), 301,364 pg/ml. Also, the “G-CSF protein (pg/ml) Rabbit reticulysates cells” value is 119,750 pg/ml in the series on rabbit reticulysates (Test A), 57,875 pg/ml in the series with rabbit reticulysates (Test B), 49,250 pg/ml in the series on rabbit reticulysates (Test C) and 47,750 pg/ml in the series with rabbit reticulysates (Test D).
